# Measured values: the supplement of paper PMC10724198
# ± gives the standard deviation of the averaged measurements.
# System: Saccharomyces cerevisiae
# Assay: protein stability index of tFT-peptide fusion (C-terminal peptide) (PSI (0-1 scale)); higher = more stable (slower turnover)
# Details: genetic background: wild type; temperature: 30 C
# Method: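 Multiplexed protein stability (MPS) profiling in S. cerevisiae. Random 12-aa peptides (tFT-X12 library) are fused to the C-terminus of a sfGFP-mCherry tandem fluorescent timer, after mCherry and a GGGS linker. Cells are FACS-sorted into 8 mCherry/sfGFP bins and deep-sequenced. The protein stability index (PSI) is the read-weighted bin average, scaled from 0 (unstable) to 1 (stable). Only peptides with >10 reads are reported; cells were grown at 30 °C in SC-His with glucose.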
# 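Note: PSI is a weighted mean of sequencing reads over stability bins, variants kept only with over 10 reads, mCherry proximal and sfGFP distal, peptide attached via GGGS linker.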
row,Sequence,protein stability index
1,EQSERGIQQGTN,0.633 ± 0.02
2,EQWSAHSMLSGR,0.705 ± 0.026
3,EREKERNKNGKY,0.671 ± 0.013
4,ERKHIISKGMNN,0.608 ± 0.041
5,ERKRPLAKKTKN,0.643 ± 0.055
6,ERNSKKKRKRRL,0.701 ± 0.08
7,ERTDEKTAEKER,0.7012 ± 0.0049
8,ERYLCVGIAHGP,0.706 ± 0.02
9,ESAGESRREFGG,0.693 ± 0.011
10,ESAGPSIYKLVT,0.638 ± 0.0092
11,ESDSEITYNKKQ,0.729 ± 0.012
12,ESGDKYKRRTQP,0.699 ± 0.052
13,ESIQAASANDSQ,0.688 ± 0.043
14,ESIQGRHRMSCL,0.6912 ± 0.006
15,ESLLFICAHALV,0.566 ± 0.017
16,ESLVIIIAGSMF,0.567 ± 0.15
17,ESLVSFTRPFSR,0.748 ± 0.026
18,ESNFTLIRKIRT,0.64 ± 0.0065
19,ESQSLLLFQEPS,0.696 ± 0.057
20,ESRARRRQGGKR,0.738 ± 0.015
21,ESRVTNKQSYQA,0.678 ± 0.03
22,ETALKVGSVGGV,0.71037 ± 6.9e-05
23,ETCIWDGRPIAS,0.723 ± 0.085
24,ETGTRELIRQWV,0.718 ± 0.02
25,EVGFPGRSWGAG,0.689 ± 0.07

row,Sequence,protein stability index
1,EVGWMPFYLVGL,0.67 ± 0.11
2,EVKKTFCFSKDI,0.672 ± 0.011
3,EVPGALISLHFY,0.654 ± 0.038
4,EVRCVFTGWHSS,0.785 ± 0.096
5,EVSRCRTVPVWL,0.662 ± 0.07
6,EVTGGRGGEGGV,0.694 ± 0.046
7,EVVGGSESRELG,0.6569 ± 0.0027
8,EVWGGFGGGGGS,0.72 ± 0.027
9,EWCVRKATRDIE,0.659 ± 0.014
10,EWGAGGVVVGGW,0.718 ± 0.043
11,EWLCLRGCCVLY,0.667 ± 0.015
12,EWLRYNKDKRKI,0.774 ± 0.14
13,EWQAGSDRRFYW,0.618 ± 0.013
14,EWSGWVGKCGRG,0.6644 ± 0.0059
15,EYCSSCLADLSP,0.69 ± 0.074
16,EYYRYLPVLIRL,0.467 ± 0.055
17,FAARASLSPLTR,0.855 ± 0.2
18,FAFSDFHLVVFF,0.684 ± 0.011
19,FALRDLHLSCFA,0.577 ± 0.012
20,FANKLYSVFMDN,0.655 ± 0.13
21,FAPTRAAPVTVS,0.5712 ± 0.0057
22,FAPVPPRATFSH,0.691 ± 0.022
23,FASFLSIPTRFS,0.712 ± 0.02
24,FCCFFFPALCCL,0.493 ± 0.024
25,FCCVETRRCVRL,0.717 ± 0.16

row,Sequence,protein stability index
1,FCGDDVCLTHFG,0.729 ± 0.029
2,FCLGSVIWERDS,0.625 ± 0.076
3,FCLLSCDTFSSS,0.6318 ± 0.0042
4,FCLPVFCVPSHF,0.634 ± 0.11
5,FCRKVFFALRRF,0.612 ± 0.095
6,FCSCSCEFVPRS,0.618 ± 0.039
7,FCSLLDSLVGGC,0.745 ± 0.072
8,FCSQNLQMNQLS,0.6 ± 0.041
9,FCVFSDVSRFSY,0.701 ± 0.082
10,FCVVGKGWKGEG,0.626 ± 0.0098
11,FCWLCRFADSPF,0.733 ± 0.078
12,FDDSNSRTGPVQ,0.692 ± 0.11
13,FDGRVTALRVRL,0.724 ± 0.033
14,FDITGAGLDSSF,0.7904 ± 0.0053
15,FDSSLFTVSQYH,0.768 ± 0.084
16,FDSYVNHRLNRD,0.608 ± 0.057
17,FDVAPTSRVNFL,0.724 ± 0.06
18,FERRGSSFWGGC,0.7 ± 0.032
19,FESGINWLLSDK,0.672 ± 0.06
20,FFACHDGYWCGC,0.778 ± 0.036
21,FFAGELGVYCLV,0.596 ± 0.033
22,FFAPSRLHHLSL,0.772 ± 0.071
23,FFFPLLLLSPPI,0.535 ± 0.015
24,FFGGAGGTEGLG,0.689 ± 0.048
25,FFMNGLWGLSVR,0.612 ± 0.0092

row,Sequence,protein stability index
1,FFPARPPPPPPR,0.769 ± 0.04
2,FFPELSNLHPPS,0.708 ± 0.017
3,FFPFSLFPLPPS,0.744 ± 0.066
4,FFPPPSSFCLSL,0.772 ± 0.069
5,FFRSFVVGSVLV,0.567 ± 0.0064
6,FFSPSSVSVGVR,0.65 ± 0.076
7,FFSRSPVFSFDF,0.8218 ± 0.0017
8,FFSSSDRQLSNQ,0.716 ± 0.041
9,FFSSTVFLLFLP,0.569 ± 0.025
10,FFTPSKQSQAYC,0.662 ± 0.027
11,FFVIIPAKSWLG,0.546 ± 0.03
12,FFVRCTEWLGED,0.6161 ± 0.0039
13,FGAEWRGVLSGC,0.773 ± 0.013
14,FGARVWVGRVGG,0.657 ± 0.069
15,FGCCCGGGLLGV,0.711 ± 0.027
16,FGCRARYDLVLI,0.641 ± 0.098
17,FGFHSLSISFFM,0.611 ± 0.035
18,FGFLELTDPHGC,0.576 ± 0.023
19,FGGFVPSSQCLI,0.712 ± 0.018
20,FGGGGLAPSLQS,0.602 ± 0.044
21,FGGKLVTHGISY,0.673 ± 0.054
22,FGGTAVAGLFDL,0.725 ± 0.061
23,FGIRGMTSVGSP,0.675 ± 0.088
24,FGKWSWGECEGS,0.69 ± 0.032
25,FGLPFPSNIVSG,0.757 ± 0.024

row,Sequence,protein stability index
1,FGLPGGVTVVTW,0.757 ± 0.14
2,FGQSKFAMKGVR,0.708 ± 0.0086
3,FGRAGAGERRGA,0.722 ± 0.28
4,FGRSGDGVGGLA,0.667 ± 0.026
5,FGRVRFCFRMRS,0.671 ± 0.025
6,FGSSLVVSMVFD,0.704 ± 0.015
7,FGTATPPPTLPP,0.727 ± 0.02
8,FGVLGCGFLLSL,0.688 ± 0.018
9,FGVVCIGVLGGV,0.5361 ± 0.0014
10,FGVVLEGAGWGG,0.73742 ± 0.00056
11,FGYAGGSRVLGS,0.68 ± 0.0095
12,FGYCFYRFHLQR,0.666 ± 0.049
13,FGYGLPFPERVE,0.781 ± 0.046
14,FHPTCAPLPCPP,0.663 ± 0.038
15,FHPVLPMSFRHV,0.666 ± 0.029
16,FHSRGVASPQPP,0.682 ± 0.018
17,FHTLCLGPCTVI,0.675 ± 0.035
18,FISVFALWDVFL,0.7 ± 0.01
19,FISYFRFDRFGS,0.699 ± 0.029
20,FKVVLGRLGVRA,0.53638 ± 6.4e-06
21,FLAPPPDVGQLV,0.692 ± 0.038
22,FLCNSVAGSLCI,0.643 ± 0.022
23,FLCSLAPHRPLL,0.704 ± 0.033
24,FLFHAIGTCRLC,0.671 ± 0.015
25,FLFLTCPFSFSF,0.633 ± 0.018

row,Sequence,protein stability index
1,FLFVVSFGGAVA,0.512 ± 0.0061
2,FLGGDVVGVFVG,0.658 ± 0.059
3,FLISLPLPAPLP,0.679 ± 0.013
4,FLLCLWIFFFGS,0.482 ± 0.028
5,FLLFIRGFSGCR,0.624 ± 0.018
6,FLLVCLNDVLRP,0.588 ± 0.062
7,FLPLPRPRLLLP,0.617 ± 0.0076
8,FLPPPPTPSPPY,0.723 ± 0.043
9,FLPPPPVLPSLP,0.697 ± 0.024
10,FLPTALTQPLIT,0.624 ± 0.028
11,FLQIPVQILPDP,0.705 ± 0.027
12,FLRLSPQFASFP,0.677 ± 0.083
13,FLSWSLPCITFR,0.571 ± 0.051
14,FLTCTTSLPFVP,0.728 ± 0.13
15,FLVSPFTLFPFS,0.754 ± 0.12
16,FMHCLLAQFAGL,0.705 ± 0.11
17,FNSFPPSPSLRP,0.729 ± 0.012
18,FNVSCLRPNMGE,0.712 ± 0.044
19,FPATSTCTFALY,0.665 ± 0.0012
20,FPCVAVFVESNR,0.647 ± 0.049
21,FPFSSFSGRCVD,0.6697 ± 0.0042
22,FPHRHAPYPSAI,0.7 ± 0.035
23,FPLIFALFPTFF,0.603 ± 0.0067
24,FPLPPHSSPLPP,0.695 ± 0.037
25,FPPHPPPPPPLN,0.743 ± 0.041

row,Sequence,protein stability index
1,FPPLIPLPINHP,0.631 ± 0.1
2,FPPLLASPPPSP,0.705 ± 0.011
3,FPPLRSLPPTPP,0.793 ± 0.12
4,FPPPLCLHRPIP,0.786 ± 0.1
5,FPPPLHFPPLPA,0.723 ± 0.055
6,FPPPPPRPPRLP,0.68 ± 0.075
7,FPPPPRPPLSFP,0.711 ± 0.078
8,FPPPSPPPLSPC,0.689 ± 0.024
9,FPQHPLFDPPAF,0.793 ± 0.013
10,FPRLTYAPFLAD,0.722 ± 0.02
11,FPRPLPPLSPLL,0.7162 ± 0.0037
12,FPSCSAGLHLNL,0.7521 ± 0.0034
13,FPSFHLCNIPST,0.757 ± 0.076
14,FPSPPPGPHPSP,0.76336 ± 0.00013
15,FPSSLPSAFPCP,0.675 ± 0.016
16,FPSSPPAHAAPH,0.68 ± 0.019
17,FPVWVKGLLGMG,0.636 ± 0.048
18,FQPQPSPAHPSH,0.693 ± 0.023
19,FRFNPGSCSRPV,0.681 ± 0.016
20,FRLICSRQFFAG,0.593 ± 0.018
21,FRPLPPPPPSPT,0.672 ± 0.052
22,FRQQGGERVRWG,0.66 ± 0.0088
23,FRSPRFLRSPPR,0.793 ± 0.064
24,FRTLVEAGSLMD,0.6995 ± 0.00077
25,FRVEWKPLYHGI,0.623 ± 0.037

row,Sequence,protein stability index
1,FRVHSFRLSCLS,0.574 ± 0.022
2,FSAVRIQASLRW,0.629 ± 0.028
3,FSCPALCSCLAV,0.604 ± 0.087
4,FSFLFSFFFSFL,0.55971 ± 7.1e-07
5,FSFVPRHGVSFR,0.6349 ± 0.0059
6,FSFVTFYSICDV,0.528 ± 0.012
7,FSGGGRGLGGEV,0.684 ± 0.024
8,FSHRPSPLSLSL,0.719 ± 0.11
9,FSKSRLRNLKLK,0.655 ± 0.016
10,FSLGQCLFGLWV,0.612 ± 0.026
11,FSLHPGTYLVVL,0.5913 ± 0.0026
12,FSLSVVGLSRWG,0.78 ± 0.1
13,FSLTPSDPFPPA,0.681 ± 0.043
14,FSLYSFSSSFSF,0.677 ± 0.033
15,FSPLARMGSGTL,0.701 ± 0.0073
16,FSPPSPPHPSPL,0.741 ± 0.023
17,FSPSPPPPAPLH,0.729 ± 0.13
18,FSRCRRGLVLCL,0.479 ± 0.045
19,FSRLNAKLPCLA,0.579 ± 0.06
20,FSSSSVRINLGV,0.663 ± 0.01
21,FSTIWSLPLSPR,0.716 ± 0.038
